This data set deals with T1, PIF4 (Arabidopsis thaliana, UniProt Q8W2F3 1-430).
T1 sequence: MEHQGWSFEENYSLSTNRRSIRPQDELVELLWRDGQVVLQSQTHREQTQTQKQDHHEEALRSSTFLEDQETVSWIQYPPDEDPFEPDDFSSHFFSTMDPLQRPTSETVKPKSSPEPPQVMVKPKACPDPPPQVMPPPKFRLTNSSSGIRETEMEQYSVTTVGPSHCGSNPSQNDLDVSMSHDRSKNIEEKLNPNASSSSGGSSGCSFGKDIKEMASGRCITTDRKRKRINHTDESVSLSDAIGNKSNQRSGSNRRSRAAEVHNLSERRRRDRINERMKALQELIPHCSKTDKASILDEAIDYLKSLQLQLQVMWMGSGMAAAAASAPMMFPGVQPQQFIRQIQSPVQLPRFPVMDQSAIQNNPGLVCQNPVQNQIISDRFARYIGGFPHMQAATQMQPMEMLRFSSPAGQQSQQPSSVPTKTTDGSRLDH
The experiment in a line: EMSA. In general terms: A gel shift assay detects complexes by their altered migration in electrophoresis.

B1: YUC8pro (WT) (dsDNA)
DNA 1: TCTTTTTCTTCCCCACGTGGCTTCCTCTCGTTGGTCCCACAA
DNA 2: TTGTGGGACCAACGAGAGGAAGCCACGTGGGGAAGAAAAAGA
On to B1, for which the binding result is “binds”.

(Values after publication PMC10624354.)
